We go through two molecules from patent US20070192880A1, “Horming response element binding transregulators” (UNIVERSITY OF ROCHESTER, priority 2003, published 2007).

Experiment [1] has as its system consensus RXRE 5′-AGGTCAnAGGTCA-3′. Nature of the experiment: luciferase reporter bearing one RXRE, COS-1 cells. It is filed as cell-based, African green monkey. The note with it: RXRα with 10^−6 M 9-cis retinoic acid. The protocol:
(§1) An ERE drives the expression of the firefly luciferase cDNA as the reporter enzyme from the TATA box promoter. […] The reporter vector contains no (TATA) or two ERE half sites with 0, 1, 2, 3, 4, 5, 10 or 15 non-specific central nucleotides. FIGS. 4C and 4D show COS-1 cells were transfected with expression vectors bearing none (V), RXRα (Panel C) PR (Panel D), ERα, (VP16)2-CDC-(p65)2 or (p65)2-CDC-(VP16)2 cDNA. Cells were treated with 10^−6 M 9-cis-retinoic acid for RXRα, 10^−8 M Progesterone for PR or 10^−9 M E2 for ERα for 24 h. The TATA box reporter vector bears one consensus RXRE 5′-AGGTCAnAGGTCA-′3 (Panel C) or PRE 5′-AGAACAnnnTGTTCT-3′ (panel D) that drives the expression of the reporter firefly luciferase cDNA. Normalized luciferase values represented as fold change are the mean±SEM of three independent experiments performed in duplicate.
(§2) Culturing and transfection of the mammalian COS-1 and […] MDA-MB-231 cells were described previously (Muyan, M. et al. (2001) Mol Cell Endocrinol 182,249-263; Yi, P. et al. (2002) Mol Endocrinol 16, 1810-1827), with the exceptions that 48 well cell culture plates were used and Trans-IT LTI transfection reagent (Mirus Corp., Madison, Wis.). Luciferase assays were performed with a Dual Luciferase Assay kit (Promega) according to the manufacture's recornmendations. […]
A general note: A reporter such as luciferase makes a cellular process visible.

For experiment [2], the system named is PRE 5′-AGAACAnnnTGTTCT-3′. Nature of the experiment: luciferase reporter bearing a single PRE, COS-1 cells. It is filed as cell-based, African green monkey. The conditions noted are these: PR with 10^−8 M Progesterone. The procedure:
as §1, §2

B1: Retinoic X Receptor α (protein, UniProt P19793 1-462, looked up)
Retinoic acid receptor …: MDTKHFLPLDFSTQVNSSLTSPTGRGSMAAPSLHPSLGPGIGSPGQLHSPISTLSSPINGMGPPFSVISSPMGPHSMSVPTTPTLGFSTGSPQLSSPMNPVSSSEDIKPPLGLNGVLKVPAHPSGNMASFTKHICAICGDRSSGKHYGVYSCEGCKGFFKRTVRKDLTYTCRDNKDCLIDKRQRNRCQYCRYQKCLAMGMKREAVQEERQRGKDRNENEVESTSSANEDMPVERILEAELAVEPKTETYVEANMGLNPSSPNDPVTNICQAADKQLFTLVEWAKRIPHFSELPLDDQVILLRAGWNELLIASFSHRSIAVKDGILLATGLHVHRNSAHSAGVGAIFDRVLTELVSKMRDMQMDKTELGCLRAIVLFNPDSKGLSNPAEVEALREKVYASLEAYCKHKYPEQPGRFAKLLLRLPALRSIGLKCLEHLFFFKLIGDTPIDTFLMEMLEAPHQMT
modifications: treated with 9-cis retinoic acid
notes: expressed from vector, treated with 9-cis retinoic acid
Consider B1, for which, in experiment [1], the “luciferase activity from a reporter plasmid bearing one RXRE” value is reported as “augmented the enzyme activity”.

B2: Progesterone Receptor (protein, UniProt P06401 1-933, looked up)
Progesterone receptor: MTELKAKGPRAPHVAGGPPSPEVGSPLLCRPAAGPFPGSQTSDTLPEVSAIPISLDGLLFPRPCQGQDPSDEKTQDQQSLSDVEGAYSRAEATRGAGGSSSSPPEKDSGLLDSVLDTLLAPSGPGQSQPSPPACEVTSSWCLFGPELPEDPPAAPATQRVLSPLMSRSGCKVGDSSGTAAAHKVLPRGLSPARQLLLPASESPHWSGAPVKPSPQAAAVEVEEEDGSESEESAGPLLKGKPRALGGAAAGGGAAAVPPGAAAGGVALVPKEDSRFSAPRVALVEQDAPMAPGRSPLATTVMDFIHVPILPLNHALLAARTRQLLEDESYDGGAGAASAFAPPRSSPCASSTPVAVGDFPDCAYPPDAEPKDDAYPLYSDFQPPALKIKEEEEGAEASARSPRSYLVAGANPAAFPDFPLGPPPPLPPRATPSRPGEAAVTAAPASASVSSASSSGSTLECILYKAEGAPPQQGPFAPPPCKAPGASGCLLPRDGLPSTSASAAAAGAAPALYPALGLNGLPQLGYQAAVLKEGLPQVYPPYLNYLRPDSEASQSPQYSFESLPQKICLICGDEASGCHYGVLTCGSCKVFFKRAMEGQHNYLCAGRNDCIVDKIRRKNCPACRLRKCCQAGMVLGGRKFKKFNKVRVVRALDAVALPQPVGVPNESQALSQRFTFSPGQDIQLIPPLINLLMSIEPDVIYAGHDNTKPDTSSSLLTSLNQLGERQLLSVVKWSKSLPGFRNLHIDDQITLIQYSWMSLMVFGLGWRSYKHVSGQMLYFAPDLILNEQRMKESSFYSLCLTMWQIPQEFVKLQVSQEEFLCMKVLLLLNTIPLEGLRSQTQFEEMRSSYIRELIKAIGLRQKGVVSSSQRFYQLTKLLDNLHDLVKQLHLYCLNTFIQSRALSVEFPEMMSEVIAAQLPKILAGMVKPLLFHKK
notes: expressed from vector, treated with Progesterone
B2: the “reporter enzyme activity from a single PRE” value in experiment [2] is on record as “enhanced the reporter enzyme activity”.
